Assay results taken from the supplement of paper PMC12042874.
± gives the uncertainty stated by the source.

Assay: amyloid nucleation score (Sup35N fusion, yeast selection) (log enrichment); library NNK1; higher = more nucleation; inactive = no reads after selection
Procedure, shortened: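 DiMSum was used to calculate nucleation scores as log enrichment of output over input reads, centred on the mode score of non-aggregating sequences. Sequences with fewer than 100 input reads were not scored. Input and output came from Illumina sequencing of plasmid inserts in psi-negative yeast expressing peptides of 20 random codons fused to Sup35N, induced 24 hours with 100 μM copper sulfate and then grown 7 days at 30°C on medium lacking adenine and uracil.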

Substance	amyloid nucleation score
DMIKNAVNILLMMSVF	-0.399 ± 0.28
DMPTS	0.45 ± 0.75
DNGLGKCSMQPEWHRAWGAR	2.06 ± 0.13
DNTWLFVAL	0.918 ± 0.35
DPTTLYIEV	1.29 ± 0.39
DPVSIMTGRQDPRGCGVTCF	-1.96 ± 2.7
DPVYGLYGALFAMNPFMDYL	-0.427 ± 0.56
DQGSWFH	-0.31 ± 1.1
DQNVAPYVSKHGVQTILKRD	-1.51 ± 1.9
DQSILRLYAWALRPGELELR	3.15 ± 0.14
DRFVVVLCFTDQ	0.452 ± 0.46
DRIFDHGIHMFSIVGQDLFT	inactive
DRLWIWQGNIVASIYKSCLL	5.41 ± 0.068
DRRSIAGFHCCWNSKVMVSP	-0.83 ± 0.88
DRVWCHETKRSFYIMCKNNI	0.052 ± 0.24
DRYVYEFSYVLFWLFILVM	0.128 ± 0.44
DSELRMVISLYFCWLWSEWS	-0.623 ± 0.6
DSGLLMKVSWKSDNC	-0.284 ± 0.39
DSNATTHVRMKVSLTGRFLR	4.8 ± 0.056
DSNPNFCRLIKYVRNDCRTP	0.012 ± 0.26
DSPGSSGCKGATVHMSFTWG	0.731 ± 0.61
DSQFAVKFCAR	inactive
DSRDVNSSLIIRVRVEDGTL	-1.2 ± 1.5
DSVLLRFYDCCEMFYLHSLL	0.48 ± 0.67
DTFCQL	-0.147 ± 1.1
DTLVDVVFDADVV	0.26 ± 0.28

Substance	amyloid nucleation score
DTNFYLFMTHG	0.244 ± 1
DTPRCRGVS	-0.197 ± 1.2
DTSFYIMLNYITIQYNSFAG	7.86 ± 0.054
DTSNHEGE	-0.554 ± 1.7
DTVVGSAFCQGMYLSESVML	1.56 ± 0.76
DVANRVVSSFLIC	-0.525 ± 0.45
DVAYRGSGYGFSYFYFGMFS	0.547 ± 0.5
DVCASGRKIVRFFPMSARAQ	inactive
DVDYLYPLYLVAGFMTNVRK	0.535 ± 0.25
DVGLFMK	-0.686 ± 0.53
DVKFVVFSNRAWVCTSASKW	4.01 ± 0.11
DVLLFL	-0.779 ± 1.3
DVMAVCGIGRKYLIWYSCVR	-1.54 ± 0.79
DVMLNCCGYCAPGGWVVVFS	5.33 ± 0.089
DVRAWVMARVGRGSELGARG	0.075 ± 0.84
DVRLRRYEGGQSSVTSHHDN	0.028 ± 0.53
DVTAPRLQIGLKVKHMKPFF	0.423 ± 0.42
DWAGMCFANSIHMDMLDRVL	0.336 ± 0.4
DWQMMVYRNAFLPR	-1.32 ± 1.3
DYLVQGLHILVKWGYDRTDG	-0.187 ± 0.5
DYRLKLLYYSSWSVLLYFVG	-0.142 ± 0.21
DYRYTNCCWQSPKRRGWQSY	0.967 ± 0.59
DYVYHKAWKVKGTRAWKESL	-0.266 ± 1.4
EAGLCSK	-0.316 ± 0.45
ECDRCYSYGCVDHKAALG	0.629 ± 0.72
ECTCSIK	0.03 ± 0.22

Substance	amyloid nucleation score
ECVTCSWF	0.011 ± 0.38
EDCIWYVVGH	-2.18 ± 2.4
EDEYQDPTTGVIHVVMGTCV	0.044 ± 1.1
EDMPFMTLKVIVFVTLMHLR	2.02 ± 0.62
EDMWNFDRSHGLWYEGTSAM	0.72 ± 0.69
EEDII	1.96 ± 0.26
EEPLIGLDKMPYPGTVYEIA	0.066 ± 0.87
EERRMSWWFERGCKLAVELS	-0.614 ± 0.8
EFGRGSNRVEFIMGASLALT	1.09 ± 0.17
EFIGFRLFIQVNSDFM	1.69 ± 0.23
EFLDELSGVVYSLLGYEVTR	2.63 ± 0.13
EFNDCGSLWFGFIRYIILMN	0.081 ± 0.25
EFTRRAYYDRNAQLFHMDQC	2.19 ± 0.18
EGATWIFQYLAGGVG	-0.534 ± 0.34
EGICNYSSKYCQGMVLIGSS	-1.52 ± 1.5
EGMFFRGSLSK	3.31 ± 0.16
EGNLVLSMLMY	-0.198 ± 0.47
EGVHNSRKVEPGVKFGSGAR	0.621 ± 1
EHLISYATYEVLVSTWNSFE	inactive
EHWSRSVGSHASVWFVAPAG	inactive
EICYRMICCYSN	0.085 ± 0.66
EINKLS	-1.27 ± 1.1
EIRQVECLTCMRQ	-0.839 ± 1.2
EKGKLCKG	-0.101 ± 0.84
EKMHQSYLSRYYIDR	1.12 ± 0.54
EKNYRICGFMGLLLFRIE	inactive

Substance	amyloid nucleation score
ELDNCARLGADCKGLNAGRS	inactive
ELFASTCGFYALHRLGSRPG	3.04 ± 0.092
ELMCFQQFKWKAMTYKWNGI	0.337 ± 0.54
ELSLRSSISVGEPVRDP	1.14 ± 0.6
ELSVRPCRVLYEHCGYRCEQ	0.196 ± 0.49
ELTNTFTV	-0.335 ± 0.37
ELVSVGLSAIHSSDYNFSFN	0.45 ± 0.7
EMHFR	0.024 ± 0.65
EMKATIHLMLKINNTWFSVP	2.07 ± 0.11
EMWRYRRVGIPRLA	0.358 ± 0.92
ENDVLELFRFSLCLCHRPGG	inactive
ENGLFKF	0.695 ± 0.32
ENSPLK	0.493 ± 0.4
ENTLRSYRLGHKVEWLMELG	-0.363 ± 0.39
EPYLISEFRRT	-0.364 ± 0.47
EQPGVHYQNQFYKHVLYNAS	0.587 ± 0.38
EQTCVVGPQE	0.397 ± 1
ERAPASSMGSWYGIGKGNAV	-0.061 ± 1.1
ERFCQGSCCNNFMGVFIRES	5.68 ± 0.077
ERNRHKVIMFMTSPWEMVIL	-1.06 ± 2.4
ERVAQKILHLKSMPITARPV	0.002 ± 1.1
ERYPCDALDVDLRLTLCRKG	0.222 ± 0.48
ESHVWELDLGSWSRFGWRSR	2.62 ± 0.11
ESKVSGIVIFGGVEIAFYRG	5.22 ± 0.1
ESNVWICAPPTDPWAIQTLR	-0.149 ± 0.51
ESTGQFYSPGSWVQGWTAYM	0.398 ± 0.66

Substance	amyloid nucleation score
ESYSYQGCFATYLQQNTWCT	-0.008 ± 0.28
ETRTSTETRPCKLWFYDRM	-0.718 ± 1.2
ETSVRMVFFVKRLTGYMNLR	-0.277 ± 0.33
EVPSMRVNAPLKV	inactive
EVVQMVFIFFRCSLVDGKEW	0.405 ± 0.72
EVYCIDVGDLSVSGKFDRSL	1.54 ± 0.4
EWGANYVGVDCSLVVRRQDV	0.497 ± 0.93
EWLDALKANTIFYWKYGSMI	0.496 ± 0.63
EWTSCMPLAFMLPLVILSFA	0.532 ± 0.7
EYFLSQYRKFTGYFVVITAT	1.47 ± 0.76
EYFMRGLLWLI	0.795 ± 0.39
EYLCLI	0.147 ± 0.45
EYLSA	0.403 ± 0.55
EYVMIRHAVLIKMFSMLKRV	-0.577 ± 0.45
FACTTSFSFMRWLRN	0.903 ± 0.46
FAELRFFCCDS	2.45 ± 0.21
FAFIDMHKGC	1.69 ± 0.17
FAPRSLGFYMNFFPRMMGQR	-0.88 ± 1.5
FASARQLMQTTDKHSVWYVV	-1.87 ± 1.8
FASKRWLWSVEQLSRLSNGT	-0.087 ± 0.21
FASVTTIFFPSPLFFDIRWD	1.09 ± 0.79
FATQTVAACVQCLKTRSDVF	0.029 ± 1.1
FCAGGMGNCKCWLCFLRSTM	-1.33 ± 0.7
